Experimental data: PMC8167360

Target: X domain (Mac1) plus Mac2 (Mac1–2) of SARS-CoV Nsp3, purified (SARS-CoV (strain Frankfurt))
Experiment: ITC; […] ([…]) […] ([…]) […]; 25°C; VP-ITC; 20 mM Tris–HCl pH 8.5, 150 mM NaCl

B1: middle domain of human Paip1 (Paip1M), purified (domain or fragment)
chain: GSHMASMTGGQQMGRGSTLSEYVQDFLNHLTEQPGSFETEIEQFAETLNGCVTTDDALQELVELIYQQATSIPNFSYMGARLCNYLSHHLTISPQSGNFRQLLLQRCRTEYEVKDQAAKGDEVTRKRFHAFVLFLGELYLNLEIKGTNGQVTRADILQVGLRELLNALFSNPMDDNLICAVKLLKLTGSVLEDAWKEKGKMDMEEIIQRIENVVLDANCSRDVKQMLLKLVELRSS
Question: How did the Kd turn out when B1 was run?
Answer: Its Kd is 18.6 µM.

Question: And the dH?
Answer: The dH was -3.73 kcal/mol.

Question: What about the stoichiometry N of the same binder?
Answer: The stoichiometry N was 1.14.
